Where two headings read alike, the source gives them in different places.
Tests used:
[1] = molecular target: recombinant canine β NGF (canine); assay: cell-based or functional assay
[2] = molecular target: T1, recombinant canine β NGF (canine, UniProt Q29074 110-229 (pig entry)); assay: cell-based or functional assay
T1 chain: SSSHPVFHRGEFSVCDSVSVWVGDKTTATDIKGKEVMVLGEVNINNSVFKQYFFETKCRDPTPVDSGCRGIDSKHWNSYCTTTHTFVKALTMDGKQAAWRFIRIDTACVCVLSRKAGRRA

[3] = molecular target: T1, recombinant canine β NGF; assay: SPR (Biacore T100), antibody captured on goat anti-canine IgG, canine NGF injected
Experimental: Purified mouse/canine chimeric antibodies and caninized antibodies were analyzed for affinity to canine NGF using a Biacore T100 instrument. Goat anti Canine IgG (Southern Biotech) was immobilized at 5000-10000 RU on a CM5 chip using an amine coupling procedure according to the manufacturer's instructions (Biacore). […] The association rate was monitored for 5 min and the dissociation rate was monitored for 10-20 min. The chip surface was regenerated using 50-75 ul 10 mM glycine pH 1.5 at a flow rate of 50-100 ul/min. Data was analyzed using Biaevaluation T100 software version 2.0.2, software, GE Healthcare Life Sciences (Piscataway, N.J.). Overall affinity parameters established for mouse/canine chimeric antibodies is summarized in Table 22 and for caninized antibodies in Table 23. […] The overall KDs of the mouse/canine anti-NGF mAbs range from about 1300 pM to 1.6 pM. […] The overall KDs of the caninized anti-NGF mAbs range from about 42 pM to 1.2 pM.

[4] = molecular target: T2, biotinylated rat β NGF (rat, UniProt P25427 122-241, limits assumed, biotinylated); assay: capture ELISA; supernatant 625-fold
T2 construct: also called Biotinylated Rat NGF; rat NGF
Experimental: (§1) The plates were washed three times with wash buffer. The plates were blocked with 200 μl of 2% milk and incubated for 1 hour at room temperature. The plates were washed as above. […] The positive control was crude sera (diluted 1:500 with PBS) isolated from a β NGF immunized mouse and the negative control was hybridoma supernatant derived from a mouse immunized with an antigen other than NGF. The plates were washed and then 50 μl of biotinylated human or rat β NGF at 50 ng/ml was added and incubated for 1 hour at room temperature. The plates were washed. […] The plates were incubated for 30 minutes at room temperature. The plates were washed and then TMB substrate (Invitrogen, catalog #00-2023) was added. The reaction was stopped using 2N H₂SO₄ (VWR, catalog # BDH3500-1). The absorbance at 450 nm was read on a Spectromax 2E plate reader (Molecular Devices); these absorbance readings are shown in Tables 1 and 2. The numerical value indicates binding of mouse anti-NGF antibodies to biotinylated human or rat β NGF.

[5] = molecular target: T3, biotinylated human β NGF (human, UniProt P01138 122-241, biotinylated); assay: capture ELISA; supernatant 625-fold
T3 construct: also called Biotinylated Human NGF; human NGF
Experimental: as §1

[6] = molecular target: T2, biotinylated rat β NGF; assay: capture ELISA; supernatant 125-fold
Experimental: as §1

[7] = molecular target: T3, biotinylated human β NGF; assay: capture ELISA; supernatant 125-fold
Experimental: as §1

[8] = molecular target: T2, biotinylated rat β NGF; assay: capture ELISA; supernatant 25-fold
Experimental: as §1

[9] = molecular target: T3, biotinylated human β NGF; assay: capture ELISA; supernatant 25-fold
Experimental: as §1

[10] = molecular target: T4, recombinant canine β NGF (canine, UniProt Q29074 110-229 (pig entry)); assay: cell-based or functional assay
T4 chain: T1 chain

[11] = molecular target: T2, biotinylated rat β NGF; assay: capture ELISA; supernatant 5-fold
Experimental: as §1

[12] = molecular target: T3, biotinylated human β NGF; assay: capture ELISA; supernatant 5-fold
Experimental: as §1

[13] = molecular target: T5, human β NGF (human, UniProt P01138 122-241, biotinylated in the TrkA inhibition ELISA (sites not given)); assay: TrkA inhibition ELISA; biotin-hNGF bound to rat TrkA/Fc; supernatant 25-fold
T5 construct: Bought (R&D Systems 256-GF/CF); also called Human NGF; biotinylated human NGF
Experimental: (§2) The plates were washed three times with PBS/Tween. The plates were blocked with 200 μl/well of 2% milk in PBS for 1 hour at room temperature. The plates were washed three times as above. Rat TrkA/Fc chimera (R&D Systems, catalog #1056-TK) was added at 1 μg/ml (50 μl/well) in PBS/0.1% BSA and then incubated for 1 hour at room temperature. Biotinylated human NGF was titered and pre-incubated with anti-NGF antibody supernatants diluted 1-fold, 5-fold, and 25-fold, or purified anti-NGF mAbs diluted to 0.08, 0.4, 2, or 10 μg/ml for 1 hour at room temperature on a plate shaker. The negative control was unrelated conditioned supernatant. The positive control was sera from a mouse immunized with NGF. The plates were washed and then 50 μl of each biotinylated NGF/Ab mix was added to the appropriate wells. The plates were incubated for 1 hour at room temperature. The plates were washed. […] The plates were incubated for 30 min at room temperature. The plates were washed. 50 μl of TMB (Invitrogen, cat #00-2023) was added and the reaction was stopped using 2N H₂SO₄ (VWR, cat # BDH3500-1). The absorbance at 450 nm was read on a Spectromax 2E plate reader (Molecular Devices), and the absorbance readings are shown in Table 5 The numerical value indicates binding of biotinylated human β NGF to rat TrkA/Fc chimera.

[14] = molecular target: T5, human β NGF; assay: TrkA inhibition ELISA; biotin-hNGF bound to rat TrkA/Fc; supernatant 5-fold
Experimental: as §2

[15] = molecular target: T5, human β NGF; assay: cell-based or functional assay
[16] = molecular target: T5, human β NGF; assay: TrkA inhibition ELISA; biotin-hNGF bound to rat TrkA/Fc; supernatant 1-fold
Experimental: as §2

[17] = molecular target: T1, recombinant canine β NGF; assay: cell-based or functional assay
[18] = molecular target: T1, recombinant canine β NGF; assay: SPR (Biacore), mAb captured on goat anti-mouse IgG Fc, canine NGF injected; Expt 2
Experimental: (§3) A biomolecular protein interaction analysis was used to evaluate the binding kinetics of the interaction between the purified anti-NGF hybridoma antibodies and recombinant canine β NGF. The antibodies were captured using a goat anti-mouse IgG FC (10000 RU) surface which was directly immobilized to a CM5 chip using an amine coupling procedure according to the manufacturer's instructions (Biacore). A sample size of 5 μl of antibody at a concentration of 1 μg/ml was captured at 10 μl minute. Recombinant canine NGF was used as the antigen. Canine NGF was injected at 75 μl/min (concentration range: 5-0.039 nM) for mouse antibodies. The association rate was monitored for 3.3 minutes and the dissociation rate was monitored for 10 minutes. Aliquots of canine NGF were also simultaneously injected over a reference reaction CM surface to record any nonspecific binding background. The instrument sensitivity for on-rate is I×IO⁷, such that any on-rate that is faster than I×IO⁷ may not be accurately measured; the instrument sensitivity for off-rate is […], such that any off-rate that is slower than 1×10⁻⁶ may not be accurately measured. Therefore, an on-rate that is faster than 1×10⁷ is recorded as >1×10⁷ and an off-rate that is slower than 1×10⁻⁶ is recorded as <1×10⁻⁶.

[19] = molecular target: T1, recombinant canine β NGF; assay: SPR (Biacore), mAb captured on goat anti-mouse IgG Fc, canine NGF injected; Expt 1
Experimental: as §3

[20] = molecular target: T1, recombinant canine β NGF; assay: direct ELISA, canine NGF coated at 1 µg/ml, mAb at 10 µg/ml
Experimental: (§4) To determine if purified mouse anti-NGF mAbs bind to canine β NGF, ELISA plates were coated with 50 μl/well of canine NGF (Abbott Laboratories) at 1 μg/ml in PBS and incubated over night at 4° C. The plates were washed three times with PBS+Tween buffer. The plates were blocked with 200 μl/well of 2% milk in PBS for 1 hour at room temperature. The plates were washed three times as above. Purified antibodies were diluted to 0.4, 2, or 10 μg/ml. 50 μl of each concentration of purified antibody was added to the plates. The plates were incubated for 1 hour at room temperature. The plates were washed. 50 μl of a 5000-fold diluted goat anti-mouse IgG Fc-HRP (Thermo, catalog #31439) was added. The plates were incubated for 1 hour at room temperature. 50 μl of TMB (Invitrogen, catalog #00-2023) was added and the reaction was stopped using 2N H₂SO₄ (VWR, catalog # BDH3500-1). The absorbance at 450 nm was read on a Spectromax 2E plate reader (Molecular Devices). The results are shown in Table 9, and the numerical value indicates binding of mouse anti-NGF antibodies to canine β NGF.

[21] = molecular target: T1, recombinant canine β NGF; assay: cell-based or functional assay
[22] = molecular target: human β NGF (R&D Systems catalog #256-GF/CF) (human, UniProt P01138 122-241); assay: cell-based or functional assay
[23] = molecular target: T1, recombinant canine β NGF; assay: SPR (Biacore), mAb captured on goat anti-mouse IgG Fc, canine NGF injected; Average
Experimental: as §3

[24] = molecular target: T1, recombinant canine β NGF; assay: direct ELISA, canine NGF coated at 1 µg/ml, mAb at 2 µg/ml
Experimental: as §4

[25] = molecular target: T1, recombinant canine β NGF; assay: direct ELISA, canine NGF coated at 1 µg/ml, mAb at 0.4 µg/ml
Experimental: as §4

T2 sequence (P25427 122-241 limits assumed): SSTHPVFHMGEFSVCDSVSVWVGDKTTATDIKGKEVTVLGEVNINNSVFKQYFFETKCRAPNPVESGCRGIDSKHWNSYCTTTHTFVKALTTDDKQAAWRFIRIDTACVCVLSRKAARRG
T3 sequence (P01138 122-241 limits assumed): as the sequence (P25427 122-241 limits assumed) above, with T3S, V6I, M9R, T37M, A60D, E65D, T92M, D94G, A117V, G120A counted along it
T5 sequence (P01138 122-241 limits assumed): as the sequence (P25427 122-241 limits assumed) above, with T3S, V6I, M9R, T37M, A60D, E65D, T92M, D94G, A117V, G120A counted along it
Chain of human β NGF (R&D Systems catalog #256-GF/CF) (P01138 122-241 limits assumed): as the sequence (P25427 122-241 limits assumed) above, with T3S, V6I, M9R, T37M, A60D, E65D, T92M, D94G, A117V, G120A counted along it

B1: Mu72 Canine IgG1/k Chimera (antibody, V domains shown)
VH: EVHLVESGGGLVKPGGFLILSCAASGFTFSDYYMFWIRQTPGKRLEWVATISDGGSYTYYTDNVKGRFTISRDNVKNNLYLQMSHLKSADTAMYYCARDWSDSEGFAYWGQGTLVTVSA
VL: DVLMTQTPLSLPVSLGDQASISCRSSQSIVQSNGNTYLEWYLQKPGQSPKLLIYKVSNRFSGVPDRFSGSGSGTDFTLKISRVEAEDLGVYYCFQGSHVPFTFGSGTKLEIKR
notes: also called PR-1290646; lot 1785614
[1]
  TF-1 cell proliferation potency (70 pM canine NGF): < 50 pM
[2]
  IC50, canine NGF-induced TF-1 cell proliferation (70 pM canine NGF): 41 pM
[3]
  Kd: 1300 pM
  koff: 0.0038 s⁻¹

B2: PR-1254972 (antibody, mouse IgG2b, V domains shown)
VH: B1 VH
VL: B1 VL
notes: also called 20B10; ML129-20B10.3F4
[4]
  absorbance at 450 nm: 0.108
[5]
  absorbance at 450 nm: 0.143
[6]
  absorbance at 450 nm: 0.261
[7]
  absorbance at 450 nm: 0.576
[8]
  absorbance at 450 nm: 0.431
[9]
  absorbance at 450 nm: 0.997
[10]
  PathHunter IC50 (441 pM canine NGF): < 1 nM
  SureFire cellular pERK IC50 (128 pM canine NGF): < 1 nM
[11]
  absorbance at 450 nm: 0.472
[12]
  absorbance at 450 nm: 1.1

B3: 2B12 hybridoma supernatant (antibody, mouse IgG2b, V domains shown)
VH: QVQLQQPGAELVKPGASVKLSCKASGYTFTNYWMHWVKQRPGQGLEWIGRIDPYGGGTKHNEKFKRKATVTADKSSSTAYILLSSLTSEDSAVYYCTRSGYDYYFDVWGTGTTVTVSS
VL: DIQMTQSPASLSASVGETVTVTCRASENIYSFLAWHQQKQGKSPQLLVYNANTLAEGVPSRFSGSGSGTQFSLKINSLQPEDFGSYYCQHHFGTPFTFGSGTKLEIKR
notes: Tested as supernatant of the hybridoma before subcloning; mouse IgG2b kappa; also called ML129-2B12.5G9
[13]
  absorbance at 450 nm: 0.095 OD450
[14]
  absorbance at 450 nm: 0.07 OD450
[15]
  SureFire pERK, % of maximum signal; supernatant 1000-fold: 0%
[16]
  absorbance at 450 nm: 0.065 OD450

B4: PR-1254980 (antibody, mouse IgG1, V domains shown)
VH: EVQLQQSGAELVKPGASVKLSCTASGFNIKDTYIYWVKQRPEQGLEWIGRIDPANGNTIYASKFQGKATITADTSSNTAYMQLSSLTSGDTAVYYCAGYGYYAYWGQGTTLTVSS
VL: DVVLTQTPLSLPVNIGDQASISCKSTKSLLNGDGFTYLDWYLQKPGQSPQLLIYLVSNRFSGVPDRFSGSGSGTDFTLKISRVEAEDLGVYYCFESNYLFTFGSGTKLEMKR
notes: also called 23F1; ML129-23F1.4G3
[17]
  IC50, canine NGF-induced TF-1 cell proliferation (70 pM canine NGF): 0.343 nM
[18]
  Kd: < 22.5 pM
  koff: 0.000225 s⁻¹
  kon: > 1e+07 M⁻¹ s⁻¹
[19]
  Kd: < 23.7 pM
  koff: 0.000237 s⁻¹
  kon: > 1e+07 M⁻¹ s⁻¹
[20]
  absorbance at 450 nm: 0.491 A450
[21]
  PathHunter IC50 (441 pM canine NGF): 0.381 nM
  SureFire pERK IC50 (128 pM canine β NGF): 13.7 pM
[22]
  PathHunter % of max signal, supernatant 100-fold: 5%
[23]
  Kd: < 23.1 pM
  koff: 0.000231 s⁻¹
  kon: > 1e+07 M⁻¹ s⁻¹
[24]
  absorbance at 450 nm: 0.334 A450
[25]
  absorbance at 450 nm: 0.168 A450
